Patent US11787839B2, “Targeting α2δ-1-bound glutamate receptors for treating diseases and disorders” (Board of Regents, The University of Texas System, priority 2017, dated 2023)

Legend:
[1] = target: T1, NMDARs of hippocampal CA1 pyramidal neurons (Mus musculus, UniProt O08532+P35438); assay: Puff NMDAR currents of hippocampal CA1 neurons, oxygen-glucose deprivation (OGD); format: cell-based; settings: 5 min OGD; gabapentin 30 or 100 μM, peptides 1 μM, 60 min
T1 construct: from tissue; host or cells: mouse brain slices (hippocampal CA1, hypothalamic PVN, brain tissue membrane extracts)
T1 sequence (O08532 25-956 limits assumed, other chains not shown): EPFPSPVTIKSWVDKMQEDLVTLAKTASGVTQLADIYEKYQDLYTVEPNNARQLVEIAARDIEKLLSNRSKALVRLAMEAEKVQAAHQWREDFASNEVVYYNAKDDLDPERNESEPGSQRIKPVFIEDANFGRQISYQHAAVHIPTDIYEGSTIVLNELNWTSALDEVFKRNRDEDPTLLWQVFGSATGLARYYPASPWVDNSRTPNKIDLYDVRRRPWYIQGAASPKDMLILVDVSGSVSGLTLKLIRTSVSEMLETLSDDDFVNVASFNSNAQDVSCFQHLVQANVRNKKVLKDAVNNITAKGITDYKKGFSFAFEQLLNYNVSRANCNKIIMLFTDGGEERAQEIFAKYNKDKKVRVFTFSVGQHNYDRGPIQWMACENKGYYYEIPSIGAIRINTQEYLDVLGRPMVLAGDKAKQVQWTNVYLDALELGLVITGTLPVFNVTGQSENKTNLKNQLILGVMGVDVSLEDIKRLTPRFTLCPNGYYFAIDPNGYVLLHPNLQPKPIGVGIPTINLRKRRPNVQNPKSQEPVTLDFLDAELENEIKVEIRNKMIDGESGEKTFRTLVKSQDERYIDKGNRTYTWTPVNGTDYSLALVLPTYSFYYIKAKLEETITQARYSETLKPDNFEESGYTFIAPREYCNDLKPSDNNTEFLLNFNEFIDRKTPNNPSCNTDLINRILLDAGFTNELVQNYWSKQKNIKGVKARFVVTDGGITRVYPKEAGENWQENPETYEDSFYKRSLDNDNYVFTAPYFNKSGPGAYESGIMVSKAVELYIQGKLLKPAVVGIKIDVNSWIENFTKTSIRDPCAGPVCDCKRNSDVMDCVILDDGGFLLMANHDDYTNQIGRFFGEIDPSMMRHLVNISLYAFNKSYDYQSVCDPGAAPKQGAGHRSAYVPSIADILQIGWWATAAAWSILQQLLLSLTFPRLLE
Experimental: Brain slice preparation and recording. The tissues containing the hippocampus were sliced sagittally (300 μm thick) using a vibratome. […] NMDAR currents of pyramidal neurons in the hippocampal CA1 region were recorded by puff application of 100 μM NMDA directly to the recorded neuron at a holding potential of −60 mV.

[2] = target: T2, NMDARs of RVLM-projecting PVN neurons (Rattus norvegicus, UniProt P35439+Q00959+Q00960); assay: Recordings of RVLM-projecting PVN neurons in slices of WKY rats and SHRs; format: cell-based
T2 construct: from tissue; host or cells: rat hypothalamic slices containing the PVN (Sprague-Dawley, WKY, SHR) and synaptosomes made from them

[3] = target: T3, NMDARs of spinally projecting PVN neurons (Rattus norvegicus, UniProt P35439+Q00959+Q00960); assay: Recordings of spinally projecting PVN neurons in rat brain slices (Ang II); format: cell-based; settings: losartan 2 μmol/L, pregabalin 20 μmol/L, peptides 1 μmol/L
T3 construct: from tissue; host or cells: rat hypothalamic slices containing the PVN (Sprague-Dawley, WKY, SHR) and synaptosomes made from them
Description: Retrograde labeling of spinally projecting PVN neurons: Rats or mice were anesthetized with 2-3% isoflurane, and their spinal cords at the T1-T4 level were exposed through dorsal laminectomy. A fluorescent microsphere suspension (FluoSpheres, 0.04 μm; Molecular Probes, Invitrogen, Eugene, Oreg.) was pressure ejected (Nanoject II Microinjectors, Drummond Scientific Company, Broomall, Pa.) bilaterally into the IML region of the spinal cord in six separate 50-nl injections using a glass micropipette (tip diameter, 20-30 μm). […] The wound was closed with sutures after injection. Animals were returned to their cages for 4-7 days, which was sufficient time to permit the tracer to be retrogradely transported to the PVN. The animals were inspected daily for motor activity, signs of infection, and food and water intake.
Brain slice preparation: Four to seven days after fluorescent tracer injection, the animals were anesthetized with isoflurane and rapidly decapitated. […] Coronal slices (thickness, 300 μm) containing the PVN were cut from the tissue block in the ice-cold aCSF. […] The brain slices were placed in a glass-bottom chamber and continuously perfused with aCSF at 3.0 ml/min at 34° C. maintained by an inline solution heater and temperature controller.
The labeled PVN neurons were briefly identified with the aid of epifluorescence illumination, and whole-cell recordings from labeled PVN neurons were performed under differential interference contrast optics on an upright microscope (BX50 WI; Olympus Optical, Tokyo, Japan). Recordings of postsynaptic currents began 5 min after the whole-cell access was established and the current reached a steady state.
Signals were processed with an […] amplifier (Axon Instruments, Foster City, Calif.). A liquid junction potential of 15 mV (for the potassium gluconate pipette solution) was corrected during off-line analysis.
Postsynaptic NMDAR currents were elicited by puff application of 100 μmol/L NMDA to the recorded neuron using a positive pressure system (4 p.s.i., 50 ms; Toohey Company, Fairfield, N.J.). The tip of the puff pipette was placed 150 μm from the recorded neuron. […] The NMDAR current data presented in the manuscript were the average of 3 consecutive currents elicited by repeated puff NMDA. The neuron was discarded if the current was not stable.
Ang II, losartan, and NMDA were obtained from Sigma (St. Louis, Mo.). The α2δ-1Tat peptide and scrambled control peptide were synthesized by Bio Basic Inc. (Markham, Ontario, Canada) and validated by liquid chromatography and mass spectrometry. […] All drugs were prepared immediately before the experiments and applied to the slice chamber. The brain slices were first pretreated with Ang II, losartan, α2δ-1Tat peptide, or control peptide in the slice incubation chamber before recording. For electrophysiological recording, the treatment agents were immediately removed and the brain slice transferred to a separate recording chamber.

[4] = target: T4, presynaptic NMDARs of spinal dorsal horn neurons (Rattus norvegicus, UniProt P35439+Q00959+Q00960); assay: Spinal cord slice recordings, morphine-treated rats; format: cell-based; settings: AP5 50 μM, gabapentin 100 μM, peptides 1 μM for 60 min
T4 construct: from tissue; host or cells: rat lumbar spinal cord slices (lamina II neurons) and synaptosomes made from them
Experimental: Spinal cord slice preparation and electrophysiological recordings: The lumbar spinal cord was rapidly removed through laminectomy from the animals anesthetized with isoflurane. […] The spinal cord tissue was then placed in a shallow groove formed in an agar block and glued onto the stage of a vibratome (Leica, Germany).
All signals were recorded using an amplifier (MultiClamp700B; Axon Instruments Inc., Union City, Calif.), filtered at 1-2 kHz, and digitized at 10 kHz.

[5] = target: presynaptic NMDARs of spinal lamina II neurons (Rattus norvegicus, UniProt P35439+Q00959+Q00960)
presynaptic NMDARs of spinal lamina II neurons, sequence (Q00959 20-1464 limits assumed, other chains not shown): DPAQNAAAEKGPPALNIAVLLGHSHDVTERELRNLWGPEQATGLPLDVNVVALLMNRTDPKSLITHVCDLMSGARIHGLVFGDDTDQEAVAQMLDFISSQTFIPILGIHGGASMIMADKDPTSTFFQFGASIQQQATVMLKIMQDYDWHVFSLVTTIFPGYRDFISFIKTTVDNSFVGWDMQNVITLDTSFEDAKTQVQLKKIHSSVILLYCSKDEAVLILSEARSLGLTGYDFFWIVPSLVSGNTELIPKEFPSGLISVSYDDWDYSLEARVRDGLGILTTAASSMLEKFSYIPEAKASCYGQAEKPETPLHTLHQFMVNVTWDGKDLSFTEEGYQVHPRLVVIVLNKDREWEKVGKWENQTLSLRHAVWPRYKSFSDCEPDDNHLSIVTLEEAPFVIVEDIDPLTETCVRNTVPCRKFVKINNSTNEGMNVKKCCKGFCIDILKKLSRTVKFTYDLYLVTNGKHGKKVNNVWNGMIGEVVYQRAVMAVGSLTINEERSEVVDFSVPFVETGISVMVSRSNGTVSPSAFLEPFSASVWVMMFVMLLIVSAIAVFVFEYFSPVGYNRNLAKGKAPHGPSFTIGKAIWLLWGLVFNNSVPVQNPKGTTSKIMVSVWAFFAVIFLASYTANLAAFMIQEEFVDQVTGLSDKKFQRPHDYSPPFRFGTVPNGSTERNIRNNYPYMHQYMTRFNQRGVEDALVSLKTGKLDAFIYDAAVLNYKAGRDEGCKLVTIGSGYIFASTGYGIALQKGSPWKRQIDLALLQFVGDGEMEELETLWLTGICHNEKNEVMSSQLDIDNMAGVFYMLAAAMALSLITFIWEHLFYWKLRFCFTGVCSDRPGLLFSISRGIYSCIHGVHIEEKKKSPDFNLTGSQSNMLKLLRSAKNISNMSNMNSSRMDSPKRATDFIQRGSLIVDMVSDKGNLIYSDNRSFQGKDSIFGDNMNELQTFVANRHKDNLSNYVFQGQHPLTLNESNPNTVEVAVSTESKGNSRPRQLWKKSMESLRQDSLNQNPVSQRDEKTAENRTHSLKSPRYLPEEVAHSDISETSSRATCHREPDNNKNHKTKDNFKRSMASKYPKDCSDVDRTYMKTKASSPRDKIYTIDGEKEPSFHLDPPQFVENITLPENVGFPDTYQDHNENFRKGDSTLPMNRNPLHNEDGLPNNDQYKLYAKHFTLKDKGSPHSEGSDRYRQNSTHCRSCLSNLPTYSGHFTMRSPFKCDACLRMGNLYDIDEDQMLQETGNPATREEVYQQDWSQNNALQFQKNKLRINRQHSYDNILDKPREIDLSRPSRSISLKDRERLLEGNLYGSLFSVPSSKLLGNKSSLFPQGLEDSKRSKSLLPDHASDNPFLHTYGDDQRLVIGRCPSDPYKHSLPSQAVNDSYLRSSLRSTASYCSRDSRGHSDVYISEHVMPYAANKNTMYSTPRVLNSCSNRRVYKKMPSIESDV
presynaptic NMDARs of spinal lamina II neurons, sequence (Q00960 27-1482, other chains not shown): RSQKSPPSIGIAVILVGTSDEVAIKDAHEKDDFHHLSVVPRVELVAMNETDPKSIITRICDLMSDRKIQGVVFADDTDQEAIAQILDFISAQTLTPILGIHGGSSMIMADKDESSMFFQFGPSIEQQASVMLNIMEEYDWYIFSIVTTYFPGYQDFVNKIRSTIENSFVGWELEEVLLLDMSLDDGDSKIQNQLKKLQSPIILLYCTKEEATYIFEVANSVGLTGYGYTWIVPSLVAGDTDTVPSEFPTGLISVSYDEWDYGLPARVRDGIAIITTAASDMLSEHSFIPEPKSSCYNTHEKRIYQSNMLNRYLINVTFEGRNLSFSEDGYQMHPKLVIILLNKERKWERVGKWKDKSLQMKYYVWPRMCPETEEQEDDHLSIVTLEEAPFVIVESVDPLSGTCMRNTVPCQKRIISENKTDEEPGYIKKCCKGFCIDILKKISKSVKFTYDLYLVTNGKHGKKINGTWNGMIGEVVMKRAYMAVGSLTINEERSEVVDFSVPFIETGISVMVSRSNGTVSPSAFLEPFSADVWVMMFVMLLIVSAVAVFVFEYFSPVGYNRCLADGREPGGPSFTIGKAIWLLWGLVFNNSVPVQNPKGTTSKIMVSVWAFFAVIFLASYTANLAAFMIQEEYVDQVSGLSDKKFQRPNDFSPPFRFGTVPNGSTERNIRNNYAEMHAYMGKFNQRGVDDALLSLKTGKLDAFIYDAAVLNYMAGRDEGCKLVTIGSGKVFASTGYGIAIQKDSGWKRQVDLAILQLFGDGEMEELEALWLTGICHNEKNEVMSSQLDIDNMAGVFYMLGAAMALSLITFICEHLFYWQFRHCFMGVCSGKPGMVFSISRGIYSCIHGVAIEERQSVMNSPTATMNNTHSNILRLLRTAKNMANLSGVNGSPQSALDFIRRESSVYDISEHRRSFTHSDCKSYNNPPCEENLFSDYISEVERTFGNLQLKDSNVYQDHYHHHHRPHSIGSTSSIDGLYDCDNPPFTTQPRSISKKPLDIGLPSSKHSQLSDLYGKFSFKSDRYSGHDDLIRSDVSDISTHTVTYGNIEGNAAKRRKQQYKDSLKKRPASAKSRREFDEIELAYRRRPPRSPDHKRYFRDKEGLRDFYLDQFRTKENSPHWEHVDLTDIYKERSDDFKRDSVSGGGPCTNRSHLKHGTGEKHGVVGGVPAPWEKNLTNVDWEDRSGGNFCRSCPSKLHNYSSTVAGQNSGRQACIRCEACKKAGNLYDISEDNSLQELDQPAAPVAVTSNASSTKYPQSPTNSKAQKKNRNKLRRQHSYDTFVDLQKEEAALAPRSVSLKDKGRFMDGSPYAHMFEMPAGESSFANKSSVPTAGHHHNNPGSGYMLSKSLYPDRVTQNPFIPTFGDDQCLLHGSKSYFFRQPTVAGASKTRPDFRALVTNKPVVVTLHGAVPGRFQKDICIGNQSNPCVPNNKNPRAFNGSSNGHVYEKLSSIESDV

[6] = target: T5, α2δ-1 and NMDAR subunits in spinal cord synaptosomes (Rattus norvegicus, UniProt P35439+Q00959+Q00960); assay: Protein levels in spinal cord synaptosomes of treated slices (SNL, sham); format: cell-based; settings: slices treated 30 min
T5 construct: from tissue; host or cells: rat lumbar spinal cord slices (lamina II neurons) and synaptosomes made from them
Experimental: PSD-95, a known postsynaptic protein, was used as an internal control.
Spinal cord synaptosome preparation: The spinal cord slices were pooled from 2 rats and were homogenized using glass-Teflon homogenizer in 10 volumes of ice-cold HEPES-buffered sucrose (0.32 M sucrose, 1 mM EGTA, and 4 mM HEPES at pH 7.4) containing the protease inhibitor cocktail (Sigma-Aldrich). The homogenate was centrifuged at 1,000×g for 10 min at 4° C. to remove the nuclei and large debris. […] The synaptosomal pellet was lysed via hypo-osmotic shock in 9 volumes of ice-cold HEPES-buffer with the protease inhibitor cocktail for 30 min. The lysate was centrifuged at 25,000×g for 20 min at 4° C. to obtain the synaptosomal membrane fraction, which was then dissolved in sodium dodecyl sulfate sample buffer at a final concentration of 0.25 μg/μl for immunoblotting. […] The α2δ-1Tat peptide and scrambled control peptide were synthesized by Bio Basic Inc. (Marham, Ontario, Canada) and validated by using liquid chromatography and mass spectrometry.

anesthetized rats = assay: PVN microinjection and recording of RSNA and ABP (Ang II); format: in vivo, rat; settings: peptides 100 μmol/L, 50 nl
Experimental: PVN microinjection and recording of renal sympathetic nerve activity: Rats were anesthetized with a mixture of α-chloralose (60 mg/kg, i.p.) and urethane (800 mg/kg, i.p.). A retroperitoneal incision was made, and a branch of the left renal postganglionic sympathetic nerve was isolated under a surgical microscope. The renal sympathetic nerve was cut distally to ensure that afferent nerve activity was not recorded. The renal sympathetic nerve activity (RSNA), arterial blood pressure (ABP), and heart rate (HR) were recorded using a 1401-PLUS analog-to-digital converter and Spike2 system (Cambridge Electronic Design, Cambridge, UK). A microinjection pipette (tip diameter, 20-30 μm) was advanced into the PVN according to the following stereotactic coordinates: 1.6-2.0 mm caudal to the bregma, 0.5 mm lateral to the midline, and 7.0-7.5 mm ventral to the dura. The microinjection was done using a calibrated microinjection system (Nanoject II; Drummond Scientific) and monitored using a surgical microscope as described previously (Li and Pan, 2006, 2007; Qiao et al., 2017). Ang II (200 μmol/L, 50 nl) was microinjected into the PVN to observe the change in RSNA and ABP in the absence or presence of α2δ-1Tat peptide (100 μmol/L, 50 nl) or control peptide (100 μmol/L, 50 nl). The microinjections were separated by 10- to 15-min intervals to allow recovery of the response. To determine the location of the injection site and diffusion of the drugs in the PVN, 5% rhodamine-labeled fluorescent microspheres (0.04 μm; Molecular Probes) were included in the injection solution (Li and Pan, 2006, 2007; Qiao et al., 2017).

[7] = paclitaxel-treated rats, AP5 50 μM, pregabalin 20 μM, peptides 1 μM
[8] = vehicle-treated rats, AP5 50 μM, pregabalin 20 μM, peptides 1 μM

FGLGWQPWSLSFYLVWSGLILSVLHLIRSN (Control peptide) [Tat-fused scrambled peptide]
OGD-induced increase in the puff NMDAR currents [1]: did not alter
puff NMDA currents of labelled PVN neurons ([2]; SHRs): had no effect
ratio of NMDAR-EPSCs to AMPAR-EPSCs ([2]; SHRs): did not affect
baseline frequency of mEPSCs of labelled PVN neurons ([2]; SHRs, AP5 50 μmol L-1, gabapentin 100 μmol L-1, peptides 1 μmol L-1, 60 min): had no effect
amplitude of evoked NMDAR-EPSCs of labelled PVN neurons ([2]; SHRs, gabapentin 100 μmol L-1, peptides 1 μmol L-1, 60 min): did not affect
amplitude of puff NMDA currents ([2]; WKY rats): had no effect
frequency or amplitude of mEPSCs of labelled PVN neurons ([2]; WKY rats): had no effect
ratio of NMDAR-EPSCs to AMPAR-EPSCs ([2]; WKY rats): did not affect
amplitude of evoked AMPAR-EPSCs of labelled PVN neurons ([2]; WKY rats or SHRs): did not affect
amplitude of evoked NMDAR-EPSCs of labelled PVN neurons ([2]; WKY rats, gabapentin 100 μmol L-1, peptides 1 μmol L-1, 60 min): did not affect
effect of Ang II on mEPSC frequency in pretreated slices [3]: did not affect
effect of Ang II on puff NMDA currents in pretreated slices ([3]; 30 min): significantly increased
amplitude of monosynaptic evoked EPSCs [4]: did not affect
increased amplitude of evoked monosynaptic EPSCs [5, 7]: did not significantly alter
increased frequency of mEPSCs of lamina II neurons [5, 7]: did not affect
PPR of evoked EPSCs ([5]; vehicle-treated rats): had no effect
amplitude of evoked monosynaptic EPSCs [5, 8]: did not significantly alter
frequency of mEPSCs of lamina II neurons [5, 8]: did not affect
increased protein levels of GluN1, GluN2A, GluN2B and α2δ-1 in spinal cord synaptosomes ([6]; SNL rats): had no such effects
protein levels of GluN1, GluN2A, GluN2B and α2δ-1 in spinal cord synaptosomes ([6]; sham rats): had no such effects
ABP and RSNA responses to Ang II after prior peptide microinjection into the PVN (anesthetized rats): not altered
